Laboratory results from article PMC10771500, “Ton motor conformational switch and peptidoglycan role in bacterial nutrient uptake” (Nature Communications, 2024).
Residue numbers refer to the chain shown, from its start. Names may count otherwise.

T1: periplasmic part of HasB from Serratia marcescens, residues 37-263 (HasB^(Sm, peri)) (Serratia marcescens, UniProt Q79AD1 37-263)
T1 construct: HasB, the TonB paralog of the Heme Acquisition System of Serratia marcescens, residues 37-263; 15N-labelled in the NMR experiment; also called HasB_(37-263, Sm); source: bacterial expression (20 h at 30 °C), purified (cation exchange, SEC)
T1 sequence (looked up): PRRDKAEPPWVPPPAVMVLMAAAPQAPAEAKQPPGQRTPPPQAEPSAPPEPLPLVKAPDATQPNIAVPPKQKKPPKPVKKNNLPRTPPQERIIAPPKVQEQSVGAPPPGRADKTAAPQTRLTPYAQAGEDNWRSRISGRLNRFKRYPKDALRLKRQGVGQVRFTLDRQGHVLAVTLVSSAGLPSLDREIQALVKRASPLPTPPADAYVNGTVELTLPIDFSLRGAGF

B1: periplasmic domain of ExbD from Serratia marcescens, residues 43-140 (ExbD^(Sm, peri)) (domain or fragment, UniProt V5YUQ0 43-140, looked up)
chain: VDIRVDLPASSAKPQPRPEKPVFLSVKADKQLYVGDQPVNADQLTSVLDQRTQANKETTIFFQADKSVDYETLMSVMDTLRKAGYLKVGLVGMEGAAK
notes: ExbD of Serratia marcescens (Has system), periplasmic domain, residues 43-140; 15N- or 13C,15N-labelled in the NMR samples; also called ExbD^(Sm, peri) wild type (wt); not shown: His-tag, N-terminal, cleaved
B2: periplasmic domain of ExbD from Escherichia coli, residues 43-141 (ExbD^(Ec, peri)) (domain or fragment, UniProt P0ABV2 43-141, looked up)
chain: VDVKVNLPASTSTPQPRPEKPVYLSVKADNSMFIGNDPVTDETMITALNALTEGKKDTTIFFRADKTVDYETLMKVMDTLHQAGYLKIGLVGEETAKAK
notes: ExbD of Escherichia coli, periplasmic domain, residues 43-141; not shown: His-tag, N-terminal, cleaved
B3: ExbD^(Sm, peri) V47C (domain or fragment)
chain: B1 chain with V5C
modifications: disulfide bridge between the Cys 47 of the two subunits
notes: ExbD of Serratia marcescens, periplasmic domain, residues 43-140, with V47C; also called disulfide-bridged ExbD^(Sm, peri) V47C mutant; not shown: His-tag, N-terminal, cleaved
B4: ExbD^(Ec, peri) V47C (domain or fragment, Escherichia coli, UniProt P0ABV2 43-141, looked up)
chain: B2 chain with V5C
modifications: disulfide bridge between the Cys 47 of the two subunits
notes: ExbD of Escherichia coli, periplasmic domain, residues 43-141, with V47C; not shown: His-tag, N-terminal, cleaved
B5: ExbD construct from E. coli lacking the N-terminal residues 43-60 (ExbD^(Ec, ΔNIBS)) (domain or fragment, Escherichia coli, UniProt P0ABV2 61-141, looked up)
chain: EKPVYLSVKADNSMFIGNDPVTDETMITALNALTEGKKDTTIFFRADKTVDYETLMKVMDTLHQAGYLKIGLVGEETAKAK
notes: ExbD of Escherichia coli, periplasmic domain (43-141) lacking the N-terminal residues 43-60; the limits 61-141 are worked out from these two statements; not shown: His-tag, N-terminal, cleaved

Tests used:
[1] = target: T1, periplasmic part of HasB from Serratia …; assay: NMR titration; 2D [1H-15N]-TROSY spectra of 15N-labeled HasB^(Sm, peri) or TonB^(Ec, peri) alone and upon addition of the unlabeled ExbD periplasmic domain; 293 K; conditions: both partners purified
[2] = target: the molecule itself; assay: AUC; sedimentation velocity, 100 μM ExbD alone, 42000 rpm overnight, 50 mM sodium phosphate, 50 mM NaCl, pH 7.0; c(S) model in SEDFIT
[3] = target: the molecule itself; assay: AUC; sedimentation velocity, 100 μM ExbD^(Ec, peri) with 300 μM TonB peptide, 42000 rpm overnight, 50 mM sodium phosphate, 50 mM NaCl, pH 7.0
[4] = target: T2, periplasmic part of TonB from Escherichia coli, residues 34-239 (TonB^(Ec, peri)) (Escherichia coli, UniProt P02929 34-239); assay: NMR titration; 2D [1H-15N]-TROSY spectra of 15N-labeled HasB^(Sm, peri) or TonB^(Ec, peri) alone and upon addition of the unlabeled ExbD periplasmic domain; 293 K; conditions: both partners purified
T2 construct: TonB of Escherichia coli, residues 34-239; 15N-labelled in the NMR experiment; not shown: His-tag, N-terminal, cleaved
T2 sequence (P02929 34-239): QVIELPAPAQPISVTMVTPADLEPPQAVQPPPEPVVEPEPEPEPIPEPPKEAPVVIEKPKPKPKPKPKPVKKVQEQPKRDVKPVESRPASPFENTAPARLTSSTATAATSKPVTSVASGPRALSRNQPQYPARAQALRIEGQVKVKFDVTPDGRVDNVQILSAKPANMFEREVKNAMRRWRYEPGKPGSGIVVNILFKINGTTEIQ

[5] = target: the molecule itself; assay: NMR spectra of a disulfide-bridged mutant; NMR fingerprint spectra of the V47C mutants compared with the wild type (Supplementary Fig. 7)
[6] = target: B2; assay: NMR titration; 2D [1H-15N]-HMQC spectra of 15N-labeled ExbD periplasmic domain with and without the HasB or TonB peptide; 293 K; conditions: both partners purified
[7] = target: B5; assay: crystal structure; 2 mM ExbD^(Ec, ΔNIBS) with 10 mM TonB peptide in 50 mM Tris-HCl, 50 mM NaCl, pH 7.0; crystals in 10% w/v glycerol and 3 M ammonium sulfate, 18 °C; 1.5 Å; conditions: both partners purified
[8] = target: the molecule itself; assay: as above

In the case of B1, the binding result [1] is reported as “binds” and the “stoichiometry N” value [2] is reported as 2.

B2 was tested, and the “stoichiometry N” value [3] was 2 and the binding result [4] was “binds”.

B3: binds [5].

B4: binds [5].

KKAQPISVTMVTPADLEPPQAKK (Probably a synthetic peptide) [TonB peptide (KKAQPISVTMVTPADLEPPQAKK)]: binds [6]; binds [7].

B5: binds [8].
